Our source for the ratio of band intensity, mutant to WT BICD2 (lysate only), fold increase of the pull-down and BICD2 molecules per Rab6a^GTP liposome (molecules per liposome) values is PMC5626548.

The target of experiment [1] is full-length BICD2 F739I (mouse) (UniProt Q921C5). The experiment can be described thus: pull-down.
Experiment [2] concerns the target full-length BICD2 I189F (mouse) (UniProt Q921C5). The experiment can be described thus: pull-down.
Experiment [3] deals with full-length BICD2 S107L (mouse) (UniProt Q921C5). The experiment can be described thus: pull-down.
Experiment [4] addresses full-length BICD2 N188T (mouse) (UniProt Q921C5). The experiment can be described thus: pull-down.
For experiment [5], the target named is full-length BICD2 (Bicaudal D2), wild type (mouse) (UniProt Q921C5). The experiment can be described thus: pull-down.
Experiment [6] addresses Rab6a^GTP (Rab6a–Q72L, aa 8–195, KCK motif) linked to liposomes (mouse) (UniProt P35279). The experiment can be described thus: fluorescence intensity of BICD2–GFP on liposomes.

Regarding “cytoplasmic dynein, endogenous in porcine brain lysate (complex)”, the ratio of band intensity, mutant to WT BICD2 (lysate only) amounted to 1.95 in experiment [1], 1.61 in experiment [2], 2.44 in experiment [3] and 2.24 in experiment [4].

In turn, “dynactin, endogenous in porcine brain lysate (from UniProt A0A287B8J2 1-1281) (complex)” registered a fold increase of the pull-down at the highest Rab6a^GTP concentration in experiment [5] of 10 fold. Besides, the ratio of band intensity, mutant to WT BICD2 (lysate only) in experiment [1] was 3.65; in experiment [2] it was 1.88; in experiment [3] it was 2.88; in experiment [4], 3.86.

Regarding “full-length BICD2 (Bicaudal D2), wild type (from UniProt Q921C5 1-820) (natural protein)”, the BICD2 molecules per Rab6a^GTP liposome (molecules per liposome) in experiment [6] is 6.01.
